Data as given in patent US20190085055A1.

What was measured:
[1] = biological target: D3H44 light chain Q124E_Q160E_T178D; assay: LCCA: H1 co-expressed with L1 and L2, SPR read-out of light chain tags; competing chain L2
[2] = biological target: D3H44 light chain Q160K_T178R (Table 8); assay: LCCA (SPR), competitor L1 Q124E_Q160E_T178D
[3] = biological target: D3H44 light chain Q124E_Q160E_T178D; assay: LCCA (SPR), competitor L2 Q160K_T178R
[4] = biological target: D3H44 light chain Q160K_T178R (Table 8); assay: LCCA: H1 co-expressed with L1 and L2, SPR read-out of light chain tags; competing chain L1
[5] = biological target: D3H44 light chain Q124E_Q160E_T178D; assay: LCCA: H2 co-expressed with L1 and L2, SPR read-out of light chain tags; competing chain L2
[6] = biological target: D3H44 light chain Q160K_T178R (Table 8); assay: LCCA: H2 co-expressed with L1 and L2, SPR read-out of light chain tags; competing chain L1
D3H44 light chain Q38R [7] = assay: LCCA (SPR), competitor L2 Q38D
D3H44 light chain Q38R [8] = assay: LCCA: H2 co-expressed with L1 and L2, SPR read-out of light chain tags; competing chain L2
D3H44 light chain Q38R [9] = assay: LCCA (SPR), competitor L1 Q38D
D3H44 light chain Q38R [10] = assay: LCCA (SPR), competitor L1 Q38E
D3H44 light chain F98A = assay: LCCA (SPR), competitor L1 Q38E

D3H44 heavy chain (Fab format) D146G_Q179R
H1 Readout (H1-L1) [1]: 93 | H1 L2 of H1 L1:H1 L2 (screen) [2]: 1.4 | H1 L2 of H1 L1:H1 L2 (verification) [2]: 0.9 | H1 L1 of H1 L1:H1 L2 (screen) [3]: 86.7 | H1 L1 of H1 L1:H1 L2 (verification) [3]: 97 | H1 Readout (H1-L2) [4]: 1

D3H44 heavy chain (Fab format) K145T_Q179D_S188L
H2 Readout (H2-L1) [5]: 24 | H2 Readout (H2-L2) [6]: 83 | H2 L2 of H2 L2:H2 L1 (screen) [2]: 71 | H2 L2 of H2 L2:H2 L1 (verification) [2]: 74.3 | H2 L1 of H2 L2:H2 L1 (screen) [3]: 7.2 | H2 L1 of H2 L2:H2 L1 (verification) [3]: 20

D3H44 heavy chain (Fab format) Q39R
H2 L1 of H2 L2:H2 L1 (verification) (D3H44 light chain Q38R [7]): 11.1 | H2 Readout (H2-L1) (D3H44 light chain Q38R [8]): 1 | H1 L2 of H1 L1:H1 L2 (screen) (D3H44 light chain Q38R [9]): 10.8 | H1 L2 of H1 L1:H1 L2 (screen) (D3H44 light chain Q38R [10]): 22.7 | H1 L2 of H1 L1:H1 L2 (verification) (D3H44 light chain Q38R [10]): 8.4 | H1 L2 of H1 L1:H1 L2 (screen) (D3H44 light chain F98A): 4.3 | H1 L2 of H1 L1:H1 L2 (verification) (D3H44 light chain F98A): 4
